Series [1] has as its system Saccharomyces cerevisiae. In words: protein stability index of tFT-peptide fusion (C-terminal peptide) (PSI (0-1 scale)); higher = more stable (slower turnover). As for the experimental part: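 MPS profiling in S. cerevisiae of the tFT-X12 degron library: putative degron peptides plus stable controls, 12 aa, fused to the C-terminus of a sfGFP-mCherry timer. Cells are FACS-sorted into 8 mCherry/sfGFP bins and deep-sequenced. PSI runs from 0 (unstable) to 1 (stable). Backgrounds are wild type, das1Δ and doa10Δ at 30 °C, and wild type, das1Δ, cdc34-1 and cdc53-1 at 37 °C; 2-3 technical replicates each.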

Series [2] deals with Saccharomyces cerevisiae. The description is as above. Conditions: genetic background: wild type; temperature: 30 C.
Where [3] appears, read: genetic background: cdc34-1, temperature: 37 C.
[4] abbreviates: genetic background: cdc53-1, temperature: 37 C.
The mark [5] stands for this setting: genetic background: das1 deletion, temperature: 30 C.
[6] abbreviates: genetic background: das1 deletion, temperature: 37 C.
Where [7] appears, read: genetic background: doa10 deletion, temperature: 30 C.
The mark [8] stands for this setting: genetic background: wild type, temperature: 30 C.
[9] abbreviates: genetic background: wild type, temperature: 37 C.

± gives the standard deviation of the averaged measurements.

Here are results for 15 sequences from the supplement of paper PMC10724198.
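Note: PSI is a weighted mean of sequencing reads over stability bins, variants kept only with over 10 reads, mCherry proximal and sfGFP distal, peptide attached via GGGS linker.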

For the sequence SLLLLSLCRFVG, the protein stability index in series [1] (setting [3]) came to 0.626 ± 0.022; in series [1] (setting [4]), 0.686 ± 0.017; in series [1] (setting [5]), 0.6 ± 0.012; in series [1] (setting [6]), 0.702 ± 0.023; in series [1] (setting [7]) it was 0.194 ± 0.02; in series [1] (setting [8]), 0.232 ± 0.036. In addition, the values for the protein stability index in series [1] (setting [9]) and in series [2] were 0.384 ± 0.013 and 0.372 ± 0.026, respectively.
In the case of SLPIFSGVASVR, the protein stability index in series [1] (setting [3]) turned out to be 0.677 ± 0.014; in series [1] (setting [4]) it was 0.737 ± 0.033; in series [1] (setting [5]), 0.64 ± 0.028; in series [1] (setting [6]), 0.778 ± 0.0013; in series [1] (setting [7]), 0.642 ± 0.043; in series [1] (setting [8]) it was 0.649 ± 0.035. Also, the figures for the protein stability index in series [1] (setting [9]) and in series [2] were 0.728 ± 0.011 and 0.694 ± 0.022, respectively.
In the case of SLSCYSFFVLAL, the protein stability index in series [1] (setting [3]) was 0.513 ± 0.035; in series [1] (setting [4]), 0.543 ± 0.027; in series [1] (setting [5]), 0.404 ± 0.03; in series [1] (setting [6]), 0.534 ± 0.0054; in series [1] (setting [7]), 0.391 ± 0.014; in series [1] (setting [8]), 0.401 ± 0.025. The protein stability index in series [1] (setting [9]) stood at 0.51315 ± 0.00015; in series [2], 0.482 ± 0.0072.
As for SLVIVLPALIFL, the protein stability index in series [1] (setting [3]) is 0.463 ± 0.026; in series [1] (setting [4]) it was 0.545 ± 0.013; in series [1] (setting [5]), 0.393 ± 0.013; in series [1] (setting [6]), 0.569 ± 0.014; in series [1] (setting [7]) it was 0.408 ± 0.0052; in series [1] (setting [8]) it was 0.401 ± 0.024. For the same sequence, the protein stability index in series [1] (setting [9]) turned out to be 0.522 ± 0.014; in series [2], 0.467 ± 0.035.
Turning to SPAIRAILAPAG, the protein stability index in series [1] (setting [3]) was 0.476 ± 0.059; in series [1] (setting [4]) it was 0.504 ± 0.013; in series [1] (setting [5]), 0.404 ± 0.021; in series [1] (setting [6]), 0.546 ± 0.0073; in series [1] (setting [7]) it was 0.402 ± 0.014; in series [1] (setting [8]), 0.43 ± 0.036. For the same sequence, the protein stability index was 0.532 ± 0.0079 in series [1] (setting [9]) and 0.445 ± 0.034 in series [2].
For SPLASLRFWCFC, the protein stability index stood at 0.68 ± 0.059 in series [1] (setting [3]); 0.768 ± 0.0088 in series [1] (setting [4]); 0.6502 ± 0.0037 in series [1] (setting [5]); 0.778 ± 0.018 in series [1] (setting [6]); 0.335 ± 0.01 in series [1] (setting [7]); 0.349 ± 0.028 in series [1] (setting [8]). The results for the protein stability index in series [1] (setting [9]) and in series [2] were 0.592 ± 0.024 and 0.437 ± 0.015, respectively.
With SPPPLFLIVLHL, the protein stability index in series [1] (setting [3]) is 0.495 ± 0.0063; in series [1] (setting [4]), 0.562 ± 0.028; in series [1] (setting [5]) it was 0.446 ± 0.021; in series [1] (setting [6]), 0.639 ± 0.012; in series [1] (setting [7]) it was 0.4 ± 0.021; in series [1] (setting [8]) it was 0.371 ± 0.048. The protein stability index in series [1] (setting [9]) was found to be 0.52 ± 0.018; in series [2], 0.4283 ± 0.0032.
For the sequence SRCLALVICYRV, the protein stability index in series [1] (setting [3]) came out at 0.539 ± 0.041; in series [1] (setting [4]) it was 0.582 ± 0.031; in series [1] (setting [5]), 0.439 ± 0.021; in series [1] (setting [6]), 0.5979 ± 0.0043; in series [1] (setting [7]), 0.152 ± 0.016; in series [1] (setting [8]), 0.185 ± 0.024. Besides, the protein stability index in series [1] (setting [9]) was 0.3 ± 0.0041; in series [2], 0.265 ± 0.011.
Consider SRGKMTIVSNQI, for which the protein stability index stood at 0.6525 ± 0.00094 in series [1] (setting [3]); 0.734 ± 0.011 in series [1] (setting [4]); 0.652 ± 0.021 in series [1] (setting [5]); 0.7389 ± 0.0072 in series [1] (setting [6]); 0.642 ± 0.011 in series [1] (setting [7]); 0.669 ± 0.016 in series [1] (setting [8]). The protein stability index was 0.704 ± 0.028 in series [1] (setting [9]) and 0.574 ± 0.15 in series [2].
Take SRGLVPMANRYC: the protein stability index is 0.659 ± 0.07 in series [1] (setting [3]); 0.7383 ± 0.0028 in series [1] (setting [4]); 0.656 ± 0.03 in series [1] (setting [5]); 0.741 ± 0.018 in series [1] (setting [6]); 0.142 ± 0.0075 in series [1] (setting [7]); 0.16 ± 0.02 in series [1] (setting [8]). Also, the protein stability index in series [1] (setting [9]) worked out at 0.42 ± 0.014; in series [2], 0.298 ± 0.045.
Take SRPGRWRLYYVS: the protein stability index in series [1] (setting [3]) came to 0.6867 ± 0.0067; in series [1] (setting [4]), 0.802 ± 0.016; in series [1] (setting [5]), 0.679 ± 0.0079; in series [1] (setting [6]), 0.758 ± 0.011; in series [1] (setting [7]) it was 0.38 ± 0.023; in series [1] (setting [8]), 0.383 ± 0.022. Further, the protein stability index in series [1] (setting [9]) came to 0.54 ± 0.0037; in series [2], 0.401 ± 0.098.
With SRSVLLCFCWLC, the protein stability index came out at 0.356 ± 0.055 in series [1] (setting [3]); 0.4492 ± 0.0017 in series [1] (setting [4]); 0.411 ± 0.038 in series [1] (setting [5]); 0.5256 ± 0.0042 in series [1] (setting [6]); 0.27 ± 0.0089 in series [1] (setting [7]); 0.264 ± 0.014 in series [1] (setting [8]). The protein stability index in series [1] (setting [9]) was 0.3461 ± 0.00068; in series [2] it was 0.347 ± 0.011.
As for SVFCSLFLFLFY, the protein stability index was found to be 0.477 ± 0.025 in series [1] (setting [3]); 0.5013 ± 0.0034 in series [1] (setting [4]); 0.4 ± 0.032 in series [1] (setting [5]); 0.5568 ± 0.0013 in series [1] (setting [6]); 0.414 ± 0.026 in series [1] (setting [7]); 0.388 ± 0.01 in series [1] (setting [8]). For the same sequence, the protein stability index in series [1] (setting [9]) was found to be 0.517 ± 0.026; in series [2] it was 0.422 ± 0.037.
With SVGCCLLCFFVL, the protein stability index in series [1] (setting [3]) was found to be 0.523 ± 0.012; in series [1] (setting [4]) it was 0.563 ± 0.012; in series [1] (setting [5]) it was 0.41 ± 0.03; in series [1] (setting [6]), 0.5645 ± 0.0043; in series [1] (setting [7]) it was 0.339 ± 0.029; in series [1] (setting [8]), 0.351 ± 0.029. Besides, the protein stability index in series [1] (setting [9]) came to 0.5031 ± 0.0027; in series [2], 0.425 ± 0.028.
Regarding SWMSQFSILLTA, the protein stability index in series [1] (setting [3]) is 0.0938 ± 0.037; in series [1] (setting [4]), 0.122 ± 0.0092; in series [1] (setting [5]), 0.188 ± 0.021; in series [1] (setting [6]) it was 0.23 ± 0.0046; in series [1] (setting [7]), 0.1535 ± 0.00097; in series [1] (setting [8]), 0.167 ± 0.031. Further, the values for the protein stability index in series [1] (setting [9]) and in series [2] were 0.199 ± 0.04 and 0.285 ± 0.043, respectively.
